Columns and labels:
[1] = target: native PhoA (E. coli) [phosphatase: P00634]; test: native MS
[2] = target: wild-type SecA-SecYEG translocase (SecA bound to SecYEG-inverted inner membrane vesicles) (E. coli) (UniProt P10408); test: co-sedimentation
[3] = target: SecA(LCt) (locked C-tail) bound to SecYEG-inverted membrane vesicles (E. coli) (UniProt P10408); test: co-sedimentation
[4] = target: wild-type SecA-SecYEG translocase (SecA bound to SecYEG-inverted inner membrane vesicles) (E. coli, UniProt P10408;P0AGA2;P0AG96;P0AG99); test: co-sedimentation
Sequence of wild-type SecA-SecYEG translocase (SecA bound to SecYEG-inverted inner membrane vesicles) (P10408 whole entry, chain 1 of 4): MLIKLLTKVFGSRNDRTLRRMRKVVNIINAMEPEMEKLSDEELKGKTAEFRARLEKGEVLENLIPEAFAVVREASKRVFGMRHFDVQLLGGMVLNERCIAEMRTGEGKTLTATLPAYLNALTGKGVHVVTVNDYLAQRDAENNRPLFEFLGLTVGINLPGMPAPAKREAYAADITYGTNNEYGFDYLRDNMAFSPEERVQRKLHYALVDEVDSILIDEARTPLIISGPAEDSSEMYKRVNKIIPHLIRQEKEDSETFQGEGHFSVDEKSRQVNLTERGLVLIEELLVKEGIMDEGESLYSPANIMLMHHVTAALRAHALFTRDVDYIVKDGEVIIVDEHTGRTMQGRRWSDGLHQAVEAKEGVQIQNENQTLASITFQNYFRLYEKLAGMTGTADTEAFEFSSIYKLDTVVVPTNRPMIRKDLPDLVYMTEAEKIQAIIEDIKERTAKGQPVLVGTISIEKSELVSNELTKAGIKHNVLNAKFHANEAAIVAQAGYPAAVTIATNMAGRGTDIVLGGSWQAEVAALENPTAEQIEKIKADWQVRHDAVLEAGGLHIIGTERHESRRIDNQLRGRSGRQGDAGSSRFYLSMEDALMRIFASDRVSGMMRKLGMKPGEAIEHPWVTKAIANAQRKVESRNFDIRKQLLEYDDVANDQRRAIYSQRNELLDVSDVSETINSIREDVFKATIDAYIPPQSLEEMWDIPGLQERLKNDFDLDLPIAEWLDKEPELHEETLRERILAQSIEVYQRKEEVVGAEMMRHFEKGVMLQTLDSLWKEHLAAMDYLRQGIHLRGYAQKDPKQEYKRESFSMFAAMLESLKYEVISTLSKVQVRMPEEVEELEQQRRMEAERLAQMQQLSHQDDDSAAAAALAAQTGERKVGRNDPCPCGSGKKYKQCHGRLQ
Sequence of wild-type SecA-SecYEG translocase (SecA bound to SecYEG-inverted inner membrane vesicles) (P0AGA2 whole entry, chain 2 of 4): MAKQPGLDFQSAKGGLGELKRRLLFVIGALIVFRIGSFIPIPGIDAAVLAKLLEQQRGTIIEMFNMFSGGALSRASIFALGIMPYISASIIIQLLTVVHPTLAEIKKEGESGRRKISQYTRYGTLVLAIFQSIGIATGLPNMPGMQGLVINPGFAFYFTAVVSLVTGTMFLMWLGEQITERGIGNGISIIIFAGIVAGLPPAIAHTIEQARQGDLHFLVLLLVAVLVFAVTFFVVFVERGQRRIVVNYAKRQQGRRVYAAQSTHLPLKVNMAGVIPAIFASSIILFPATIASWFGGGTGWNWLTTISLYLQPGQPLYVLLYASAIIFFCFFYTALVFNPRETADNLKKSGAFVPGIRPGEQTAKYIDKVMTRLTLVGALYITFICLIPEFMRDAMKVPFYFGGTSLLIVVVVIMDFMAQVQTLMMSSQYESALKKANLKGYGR
Sequence of wild-type SecA-SecYEG translocase (SecA bound to SecYEG-inverted inner membrane vesicles) (P0AG96 whole entry, chain 3 of 4): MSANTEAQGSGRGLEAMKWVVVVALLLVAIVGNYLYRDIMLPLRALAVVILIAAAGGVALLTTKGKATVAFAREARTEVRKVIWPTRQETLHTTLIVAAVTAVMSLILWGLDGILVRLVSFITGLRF
Sequence of wild-type SecA-SecYEG translocase (SecA bound to SecYEG-inverted inner membrane vesicles) (P0AG99 whole entry, chain 4 of 4): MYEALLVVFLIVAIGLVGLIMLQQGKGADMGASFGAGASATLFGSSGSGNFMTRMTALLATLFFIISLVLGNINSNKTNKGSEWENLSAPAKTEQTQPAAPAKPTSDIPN

Sequence of wild-type SecA-SecYEG translocase (SecA bound to SecYEG-inverted inner membrane vesicles) (E. coli) (P10408 whole entry, chain 1 of 4): as the sequence (P10408 whole entry, chain 1 of 4) above
Sequence of wild-type SecA-SecYEG translocase (SecA bound to SecYEG-inverted inner membrane vesicles) (E. coli) (P0AGA2 whole entry, chain 2 of 4, further chain): as the sequence (P0AGA2 whole entry, chain 2 of 4) above
Sequence of wild-type SecA-SecYEG translocase (SecA bound to SecYEG-inverted inner membrane vesicles) (E. coli) (P0AG96 whole entry, chain 3 of 4, further chain): as the sequence (P0AG96 whole entry, chain 3 of 4) above
Sequence of wild-type SecA-SecYEG translocase (SecA bound to SecYEG-inverted inner membrane vesicles) (E. coli) (P0AG99 whole entry, chain 4 of 4, further chain): as the sequence (P0AG99 whole entry, chain 4 of 4) above
Sequence of SecA(LCt) (locked C-tail) bound to SecYEG-inverted membrane vesicles (E. coli) (P10408 whole entry, chain 1 of 4): as the sequence (P10408 whole entry, chain 1 of 4) above
Sequence of SecA(LCt) (locked C-tail) bound to SecYEG-inverted membrane vesicles (E. coli) (P0AGA2 whole entry, chain 2 of 4, further chain): as the sequence (P0AGA2 whole entry, chain 2 of 4) above
Sequence of SecA(LCt) (locked C-tail) bound to SecYEG-inverted membrane vesicles (E. coli) (P0AG96 whole entry, chain 3 of 4, further chain): as the sequence (P0AG96 whole entry, chain 3 of 4) above
Sequence of SecA(LCt) (locked C-tail) bound to SecYEG-inverted membrane vesicles (E. coli) (P0AG99 whole entry, chain 4 of 4, further chain): as the sequence (P0AG99 whole entry, chain 4 of 4) above
Sequence of PhoA (mature domain of proPhoA, signal peptide-less, urea-purified) (P00634 22-471): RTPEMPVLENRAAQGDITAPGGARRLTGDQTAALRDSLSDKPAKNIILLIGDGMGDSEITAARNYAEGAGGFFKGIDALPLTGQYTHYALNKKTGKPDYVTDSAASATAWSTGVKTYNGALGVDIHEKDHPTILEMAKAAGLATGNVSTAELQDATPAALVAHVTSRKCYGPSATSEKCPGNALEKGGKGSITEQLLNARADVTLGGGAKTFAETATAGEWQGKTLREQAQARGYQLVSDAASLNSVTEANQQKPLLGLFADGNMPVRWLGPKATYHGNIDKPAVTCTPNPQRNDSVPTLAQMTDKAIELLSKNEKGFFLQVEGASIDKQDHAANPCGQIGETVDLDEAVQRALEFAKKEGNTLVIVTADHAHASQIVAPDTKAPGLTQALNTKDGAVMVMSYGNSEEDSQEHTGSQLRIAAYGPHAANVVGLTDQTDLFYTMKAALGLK
Sequence of Lpp(noMTS) (P69776 21-78): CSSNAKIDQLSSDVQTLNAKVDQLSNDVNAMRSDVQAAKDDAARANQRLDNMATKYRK
Sequence of HdeA(noMTS) (P0AES9 22-110): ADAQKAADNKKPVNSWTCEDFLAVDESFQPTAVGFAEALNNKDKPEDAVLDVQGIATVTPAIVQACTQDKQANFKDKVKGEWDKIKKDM
Sequence of YncJ(noMTS) (P64459 23-76): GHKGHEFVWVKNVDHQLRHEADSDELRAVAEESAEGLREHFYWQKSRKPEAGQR

Kd [2] | Molecule | further results
 | native PhoA (from UniProt P00634 22-471) (enzyme) | stoichiometry N [1]: 2
> 20 µM | HdeA(noMTS) (from UniProt P0AES9 22-110) (natural protein) | 
> 20 µM | Lpp(noMTS) (from UniProt P69776 21-78) (natural protein) | 
> 20 µM | YncJ(noMTS) (from UniProt P64459 23-76) (natural protein) | 
 | PhoA (mature domain of proPhoA, signal peptide-less, urea-purified) (from UniProt P00634 22-471) (natural protein) | fold reduction of affinity against the wild-type translocase [3]: 18 fold
 | MKQSTIALALLPLLFTPVTKARTPEMPVLE [signal peptide of proPhoA, proPhoA(1–30)] | Kd [4]: ~3 µM

Reference: paper PMC5412566 (The Journal of Cell Biology, 2017)
